Data: paper PMC8851480 (Proceedings of the National Academy of Sciences of the …, 2022)

B1: Arg9-EBD peptide (28-amino-acid C terminus of the EBP50 EBD with an upstream 9-arginine sequence) (peptide)
peptide: RRRRRRRRRKERAHQKRSSKRAPQMDWSKKNELFSNL

Experiments:
[1] = biological target: N-terminal FLAG-tagged EBP50 (ERM-binding phosphoprotein 50) (human) (UniProt O14745); experiment: RNA immunoprecipitation
[2] = biological target: ezrin, endogenous in HEK293T cells (human (endogenous in HEK293T), UniProt P15311 1-586); experiment: RNA immunoprecipitation
ezrin, endogenous in HEK293T cells, sequence (P15311 whole entry): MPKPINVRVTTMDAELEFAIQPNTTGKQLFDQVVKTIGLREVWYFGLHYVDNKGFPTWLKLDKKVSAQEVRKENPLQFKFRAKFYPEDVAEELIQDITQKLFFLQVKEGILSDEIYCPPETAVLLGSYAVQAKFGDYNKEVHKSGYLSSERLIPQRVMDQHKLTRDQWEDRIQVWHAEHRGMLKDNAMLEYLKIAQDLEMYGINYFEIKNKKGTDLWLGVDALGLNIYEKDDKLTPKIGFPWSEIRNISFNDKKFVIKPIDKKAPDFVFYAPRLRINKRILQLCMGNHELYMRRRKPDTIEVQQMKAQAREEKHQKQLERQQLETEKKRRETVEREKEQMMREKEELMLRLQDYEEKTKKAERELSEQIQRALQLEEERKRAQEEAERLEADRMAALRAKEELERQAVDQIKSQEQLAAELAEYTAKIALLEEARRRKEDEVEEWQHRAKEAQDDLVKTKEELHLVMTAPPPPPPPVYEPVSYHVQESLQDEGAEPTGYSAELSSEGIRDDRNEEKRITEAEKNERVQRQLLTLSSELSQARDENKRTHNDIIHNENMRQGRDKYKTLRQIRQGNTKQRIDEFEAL

| Molecule | fold enrichment of EZR mRNA over control IgG (RIP-qRT-PCR) [1] | fold reduction of the EBP50-EZR mRNA RIP signal against control peptide [2] |
| --- | --- | --- |
| ezrin, endogenous in HEK293T cells (from UniProt P15311 1-586) (natural protein) | 100 fold |  |
| B1 |  | ~10 fold |
